PMC7401798

Tests used:
[1] = target: Taxol-stabilized microtubules (UniProt P02550); test: co-sedimentation
[2] = target: HIS-TAN1-GFP (maize); test: pull-down
Sequence of HIS-TAN1-GFP (maize) (C0PM98 whole entry): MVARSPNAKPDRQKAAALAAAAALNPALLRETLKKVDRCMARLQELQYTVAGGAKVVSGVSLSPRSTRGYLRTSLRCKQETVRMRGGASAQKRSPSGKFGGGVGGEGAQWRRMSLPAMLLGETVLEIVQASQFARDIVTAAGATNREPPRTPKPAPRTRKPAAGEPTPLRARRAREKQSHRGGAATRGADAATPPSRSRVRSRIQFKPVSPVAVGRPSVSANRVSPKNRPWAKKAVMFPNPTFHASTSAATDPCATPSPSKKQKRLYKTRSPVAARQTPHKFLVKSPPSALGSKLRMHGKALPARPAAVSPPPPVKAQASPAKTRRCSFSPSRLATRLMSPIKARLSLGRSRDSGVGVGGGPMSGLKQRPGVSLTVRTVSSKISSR

Sequence of HIS-TAN1-GFP (natural protein) (C0PM98 whole entry): as above
Sequence of Atto488-tagged HIS-TAN1-GFP (natural protein) (C0PM98 whole entry): as above

Substance	apparent affinity [1]	other results
HIS-TAN1-GFP (natural protein)	0.595 µM	–
tubulin dimers (from UniProt P02550 1-451) (complex)	–	stoichiometry N (tubulin dimers per HIS-TAN1-GFP) [2]: 2
6xHIS-tagged ZmTAN1 (TANGLED1) (natural protein)	–	K0.5 [1]: 1.08 µM
Atto488-tagged HIS-TAN1-GFP (natural protein)	0.05 µM	–
